Each block holds one binder with its values, some of them ahead of it.
Legend:
[1] = target: IgE antibodies of the individual allergic patient serum II/3; experiment: EAST inhibition, individual serum II/3
[2] = target: IgE antibodies of the allergic patient serum pool Bor 18/100 (20 donors); experiment: EAST inhibition, serum pool Bor 18/100
[3] = target: IgE antibodies of the allergic patient serum pool We 6/97; experiment: EAST inhibition, serum pool We 6/97
[4] = target: IgE antibodies of the individual allergic patient serum II/17; experiment: EAST inhibition, individual serum II/17
[5] = target: specific IgE on basophils from the blood of allergic patient; experiment: cell-based or functional assay
[6] = target: IgE antibodies of the individual allergic patient serum II/12; experiment: EAST inhibition, individual serum II/12

IC50 [1]: 17 nM
allergenic potency (Prel) at 25% inhibition (relative to native Phl p 5b) [1]: 0.042
allergenic potency (Prel) at 50% inhibition (relative to native Phl p 5b) [1]: 0.0035
inhibition value (inhibitor concentration at 25% inhibition) [1]: 1.2e-08 mol/L
IC50 [2]: 28 nM
allergenic potency (Prel) at 25% inhibition (relative to native Phl p 5b) [2]: 0.039
allergenic potency (Prel) at 50% inhibition (relative to native Phl p 5b) [2]: 0.0015
inhibition value (inhibitor concentration at 25% inhibition) [2]: 8.6e-09 mol/L
IC50 [3]: 17000 nM
allergenic potency (Prel) at 25% inhibition (relative to native Phl p 5b) [3]: 0.022
allergenic potency (Prel) at 50% inhibition (relative to native Phl p 5b) [3]: 0.0004
inhibition value (inhibitor concentration at 25% inhibition) [3]: 2.3e-08 mol/L
IC50 [4]: 2 nM
allergenic potency (Prel) at 25% inhibition (relative to native Phl p 5b) [4]: 0.033
allergenic potency (Prel) at 50% inhibition (relative to native Phl p 5b) [4]: 0.001
inhibition value (inhibitor concentration at 25% inhibition) [4]: 6.5e-09 mol/L
concentration required to bring about a 30% histamine release from basophils, against wild type rPh1 p 5b [5]: 20 fold higher
allergenic potency (Prel) at 25% inhibition (relative to native Phl p 5b) [6]: 3.4e-05
allergenic potency (Prel) at 50% inhibition (relative to native Phl p 5b) [6]: 1e-10
inhibition value (inhibitor concentration at 25% inhibition) [6]: 1.5e-05 mol/L
B1: rPhl p 5b deletion mutant DM1 (deletion K50-P132, D49L) (protein)
chain: ADAGYAPATPAAAGAAAGKATTEEQKLIEDINVGFKAAVAAAASVPAALAGELQIIDKIDAAFKVAATAAATAPADDKFTVFEAAFNKAIKESTGGAYDTYKCIPSLEAAVKQAYAATVAAAPQVKYAVFEAALTKAITAMSEVQKVSQPATGAATVAAGAATTAAGAASGAATVAAGGYKV

allergenic potency (Prel) at 25% inhibition (relative to native Phl p 5b) [4]: 2.9e-12
concentration required to bring about a 30% histamine release from basophils, against wild type rPh1 p 5b [5]: 500 fold higher
B2: rPhl p 5b deletion mutant DM2 (deletion F51-G178, D49L, K50A) (protein)
chain: ADAGYAPATPAAAGAAAGKATTEEQKLIEDINVGFKAAVAAAASVPAALAGAYDTYKCIPSLEAAVKQAYAATVAAAPQVKYAVFEAALTKAITAMSEVQKVSQPATGAATVAAGAATTAAGAASGAATVAAGGYKV

IC50 [1]: 5.9 nM
allergenic potency (Prel) at 25% inhibition (relative to native Phl p 5b) [1]: 1
allergenic potency (Prel) at 50% inhibition (relative to native Phl p 5b) [1]: 1
inhibition value (inhibitor concentration at 25% inhibition) [1]: 5.1e-10 mol/L
IC50 [2]: 4.2 nM
allergenic potency (Prel) at 25% inhibition (relative to native Phl p 5b) [2]: 1
allergenic potency (Prel) at 50% inhibition (relative to native Phl p 5b) [2]: 1
inhibition value (inhibitor concentration at 25% inhibition) [2]: 3.3e-10 mol/L
IC50 [3]: 6.1 nM
allergenic potency (Prel) at 25% inhibition (relative to native Phl p 5b) [3]: 1
allergenic potency (Prel) at 50% inhibition (relative to native Phl p 5b) [3]: 1
inhibition value (inhibitor concentration at 25% inhibition) [3]: 5.1e-10 mol/L
IC50 [4]: 2.6 nM
allergenic potency (Prel) at 25% inhibition (relative to native Phl p 5b) [4]: 1
allergenic potency (Prel) at 50% inhibition (relative to native Phl p 5b) [4]: 1
inhibition value (inhibitor concentration at 25% inhibition) [4]: 2.2e-10 mol/L
IC50 [6]: 6.8 nM
allergenic potency (Prel) at 25% inhibition (relative to native Phl p 5b) [6]: 1
allergenic potency (Prel) at 50% inhibition (relative to native Phl p 5b) [6]: 1
inhibition value (inhibitor concentration at 25% inhibition) [6]: 5.2e-10 mol/L
B3: natural Phl p 5b, purified by affinity chromatography (protein)
chain: ADAGYAPATPAAAGAAAGKATTEEQKLIEDINVGFKAAVAAAASVPAADKFKTFEAAFTSSSKAAAAKAPGLVPKLDAAYSVAYKAAVGATPEAKFDSFVASLTEALRVIAGALEVHAVKPVTEEPGMAKIPAGELQIIDKIDAAFKVAATAAATAPADDKFTVFEAAFNKAIKESTGGAYDTYKCIPSLEAAVKQAYAATVAAAPQVKYAVFEAALTKAITAMSEVQKVSQPATGAATVAAGAATTAAGAASGAATVAAGGYKV

IC50 [1]: 14 nM
allergenic potency (Prel) at 25% inhibition (relative to native Phl p 5b) [1]: 0.903
allergenic potency (Prel) at 50% inhibition (relative to native Phl p 5b) [1]: 0.419
inhibition value (inhibitor concentration at 25% inhibition) [1]: 5.6e-10 mol/L
IC50 [2]: 5 nM
allergenic potency (Prel) at 25% inhibition (relative to native Phl p 5b) [2]: 1.71
allergenic potency (Prel) at 50% inhibition (relative to native Phl p 5b) [2]: 0.841
inhibition value (inhibitor concentration at 25% inhibition) [2]: 2e-10 mol/L
IC50 [3]: 1400 nM
allergenic potency (Prel) at 25% inhibition (relative to native Phl p 5b) [3]: 1.7
allergenic potency (Prel) at 50% inhibition (relative to native Phl p 5b) [3]: 0.44
inhibition value (inhibitor concentration at 25% inhibition) [3]: 3e-10 mol/L
IC50 [4]: 4.7 nM
allergenic potency (Prel) at 25% inhibition (relative to native Phl p 5b) [4]: 1.04
allergenic potency (Prel) at 50% inhibition (relative to native Phl p 5b) [4]: 0.545
inhibition value (inhibitor concentration at 25% inhibition) [4]: 2.1e-10 mol/L
IC50 [6]: 73 nM
allergenic potency (Prel) at 25% inhibition (relative to native Phl p 5b) [6]: 0.597
allergenic potency (Prel) at 50% inhibition (relative to native Phl p 5b) [6]: 0.093
inhibition value (inhibitor concentration at 25% inhibition) [6]: 8.7e-10 mol/L
B4: recombinant Phl p 5b (wild type) (protein)
chain: B3 chain

Source: patent publication US6919086B1, “Graminae pollen allergen mutants for specific immunotherapy, and production and use of the same” (Merck Patent Gesellschaft mit, priority 1997, dated 2005)
